Assay [1] concerns the target human OX40 expressed on transfected BT-474 cells (fusion with 5' HSV glycoprotein D tag) (human) (UniProt P43489). Nature of the assay: flow cytometry, ACT35-PE staining of the BT474-human OX40 low clone. (In general: In flow cytometry, cells or beads pass a laser one at a time.)
Assay [2] has the same target. The assay can be described thus: flow cytometry, ACT35-PE staining of the BT474-human OX40-high clone.

Sequence of human OX40 expressed on transfected BT-474 cells (fusion with 5' HSV glycoprotein D tag) (human) (P43489 29-277): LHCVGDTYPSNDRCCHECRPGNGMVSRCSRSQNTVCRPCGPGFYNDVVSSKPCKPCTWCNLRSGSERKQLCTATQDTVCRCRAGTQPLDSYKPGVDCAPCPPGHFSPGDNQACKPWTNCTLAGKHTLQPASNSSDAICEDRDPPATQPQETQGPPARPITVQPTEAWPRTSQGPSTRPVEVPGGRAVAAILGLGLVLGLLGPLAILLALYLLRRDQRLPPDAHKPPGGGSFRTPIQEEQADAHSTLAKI

Regarding “anti-human OX40 (PE) (clone ACT35) (antibody)”, the MFI in assay [1] came out at 994 MFI; in assay [2], 5240 MFI.

Values taken from patent US20150307617A1.
